Measurements from patent US10450368.

Assays:
[1] = target: HIV-1 CH505 transmitted/founder gp120 Env (HIV-1); experiment: competition ELISA, blocking of CH236 binding to CH505 TF gp120
[2] = target: HIV-1 CH505 transmitted/founder gp120 Env (HIV-1); experiment: competition ELISA; competitor biotinylated CH241 on CH505 TF gp120
[3] = target: HIV-1 CH505 transmitted/founder gp120 Env (HIV-1); experiment: competition ELISA, blocking of CH106 binding to CH505 TF gp120 (self)
[4] = target: HIV-1 CH505 transmitted/founder gp120 Env (HIV-1); experiment: competition ELISA; competitor biotinylated CH240 on CH505 TF gp120
[5] = target: HIV-1 CH505 transmitted/founder gp120 Env (HIV-1); experiment: competition ELISA, blocking of CH235 binding to CH505 TF gp120
CH505w030.20D8gp120/293F = experiment: ELISA
CH0505_CON D7gp120/293i = experiment: ELISA
CH505w020.14D8gp120 = experiment: ELISA
CH505.w30.12D8gp120 = experiment: ELISA
[6] = target: CH505w160.C4D8gp120 (HIV-1); experiment: direct-binding ELISA
[7] = target: CH505w136.B12D8gp120 (HIV-1); experiment: direct-binding ELISA
Centromere B = Centromere B (UniProt P07199); experiment: AtheNA, Ab 25 ug/ml
RNP (ribonucleoprotein) = experiment: AtheNA, Ab 25 ug/ml
SSB = SSB (UniProt P05455); experiment: AtheNA, Ab 25 ug/ml
Jo-1 = Jo-1 (UniProt P12081); experiment: AtheNA, Ab 25 ug/ml
Scl-70 = Scl-70 (UniProt P11387); experiment: AtheNA, Ab 25 ug/ml
Histones = experiment: AtheNA, Ab 25 ug/ml
SSA = experiment: AtheNA, Ab 25 ug/ml
Sm (Smith antigen) = experiment: AtheNA, Ab 25 ug/ml

Chain of Jo-1 (P12081 whole entry): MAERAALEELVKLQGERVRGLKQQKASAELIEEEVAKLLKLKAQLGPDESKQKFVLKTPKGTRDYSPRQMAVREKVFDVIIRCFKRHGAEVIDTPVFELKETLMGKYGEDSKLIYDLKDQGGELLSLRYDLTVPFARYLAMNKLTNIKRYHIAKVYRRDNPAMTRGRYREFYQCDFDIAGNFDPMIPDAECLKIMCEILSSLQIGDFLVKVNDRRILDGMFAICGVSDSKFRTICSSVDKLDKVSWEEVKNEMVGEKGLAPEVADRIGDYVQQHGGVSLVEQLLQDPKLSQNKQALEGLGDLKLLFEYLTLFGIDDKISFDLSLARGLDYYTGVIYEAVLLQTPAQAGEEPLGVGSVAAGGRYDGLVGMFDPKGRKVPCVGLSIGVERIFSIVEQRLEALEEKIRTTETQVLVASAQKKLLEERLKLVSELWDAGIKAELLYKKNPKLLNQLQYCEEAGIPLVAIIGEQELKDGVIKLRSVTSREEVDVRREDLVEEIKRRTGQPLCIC
Chain of Centromere B (P07199 whole entry): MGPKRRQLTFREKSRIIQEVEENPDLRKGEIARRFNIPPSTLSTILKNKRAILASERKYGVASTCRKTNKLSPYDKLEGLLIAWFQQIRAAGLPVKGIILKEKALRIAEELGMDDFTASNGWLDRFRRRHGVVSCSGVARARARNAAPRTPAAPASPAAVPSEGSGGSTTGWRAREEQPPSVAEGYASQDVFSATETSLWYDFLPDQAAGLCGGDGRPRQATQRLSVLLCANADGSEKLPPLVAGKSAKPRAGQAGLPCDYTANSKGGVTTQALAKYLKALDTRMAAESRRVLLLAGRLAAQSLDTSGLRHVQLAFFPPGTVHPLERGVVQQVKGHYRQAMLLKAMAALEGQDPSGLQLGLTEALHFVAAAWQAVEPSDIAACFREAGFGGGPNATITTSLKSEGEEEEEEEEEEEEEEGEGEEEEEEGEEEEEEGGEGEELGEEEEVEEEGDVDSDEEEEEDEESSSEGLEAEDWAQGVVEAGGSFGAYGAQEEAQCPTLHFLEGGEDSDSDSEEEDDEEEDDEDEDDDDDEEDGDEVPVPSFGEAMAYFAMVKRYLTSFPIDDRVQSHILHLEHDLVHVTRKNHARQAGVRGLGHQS
Chain of SSB (P05455 whole entry): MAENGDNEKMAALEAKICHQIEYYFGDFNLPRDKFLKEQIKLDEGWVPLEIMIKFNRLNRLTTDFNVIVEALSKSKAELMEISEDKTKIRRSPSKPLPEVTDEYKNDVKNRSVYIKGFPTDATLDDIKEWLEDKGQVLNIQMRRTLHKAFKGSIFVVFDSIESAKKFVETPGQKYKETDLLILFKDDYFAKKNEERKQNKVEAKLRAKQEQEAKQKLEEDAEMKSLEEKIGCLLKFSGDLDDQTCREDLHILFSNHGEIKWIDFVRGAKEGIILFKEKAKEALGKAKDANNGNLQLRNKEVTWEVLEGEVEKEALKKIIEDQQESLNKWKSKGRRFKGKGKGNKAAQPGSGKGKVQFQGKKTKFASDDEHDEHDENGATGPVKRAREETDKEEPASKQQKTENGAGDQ
Chain of Scl-70 (P11387 whole entry): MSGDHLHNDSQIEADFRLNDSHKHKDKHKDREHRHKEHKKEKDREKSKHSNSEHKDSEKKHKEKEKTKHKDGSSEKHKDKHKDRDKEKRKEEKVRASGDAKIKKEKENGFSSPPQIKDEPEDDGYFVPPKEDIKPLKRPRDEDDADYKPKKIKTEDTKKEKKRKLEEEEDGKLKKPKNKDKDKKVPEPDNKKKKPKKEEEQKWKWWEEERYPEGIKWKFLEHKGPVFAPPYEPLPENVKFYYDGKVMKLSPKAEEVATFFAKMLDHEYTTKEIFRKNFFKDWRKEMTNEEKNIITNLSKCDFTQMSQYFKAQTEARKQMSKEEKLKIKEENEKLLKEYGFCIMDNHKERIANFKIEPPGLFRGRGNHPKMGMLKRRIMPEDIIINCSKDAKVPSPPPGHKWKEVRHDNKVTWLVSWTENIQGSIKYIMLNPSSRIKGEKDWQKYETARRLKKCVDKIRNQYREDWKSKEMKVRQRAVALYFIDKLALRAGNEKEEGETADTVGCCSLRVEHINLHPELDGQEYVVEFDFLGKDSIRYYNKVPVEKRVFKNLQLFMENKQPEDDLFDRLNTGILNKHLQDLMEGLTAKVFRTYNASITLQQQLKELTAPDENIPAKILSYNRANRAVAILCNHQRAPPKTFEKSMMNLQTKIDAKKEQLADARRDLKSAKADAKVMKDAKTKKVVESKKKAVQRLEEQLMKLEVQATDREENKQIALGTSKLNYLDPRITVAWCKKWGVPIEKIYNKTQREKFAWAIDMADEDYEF

## CH106 (antibody)
[1]
  IC50: 6.8 µg/mL
[2]
  IC50: 14.3 µg/mL
[3]
  IC50: 2.5 µg/mL
[4]
  IC50: 2.3 µg/mL
[5]
  IC50: 4.3 µg/mL
CH505w030.20D8gp120/293F
  LogAUC: 7.25
CH0505_CON D7gp120/293i
  LogAUC: 11.9
CH505w020.14D8gp120
  LogAUC: 11.2
CH505.w30.12D8gp120
  LogAUC: 11.8
[6]
  LogAUC: 6.8
[7]
  LogAUC: 11.9
Centromere B
  AtheNA signal (relative luminescence units): 2
RNP (ribonucleoprotein)
  AtheNA signal (relative luminescence units): 3
SSB
  AtheNA signal (relative luminescence units): 3
Jo-1
  AtheNA signal (relative luminescence units): 2
Scl-70
  AtheNA signal (relative luminescence units): 2
Histones
  AtheNA signal (relative luminescence units): 3
SSA
  AtheNA signal (relative luminescence units): 8
Sm (Smith antigen)
  AtheNA signal (relative luminescence units): 1
